Measurements taken from patent publication US9969795.

Target: recombinant influenza HA3-protein (from H3N2, Wyoming, March 2003, Sino Biological Inc.) (Influenza virus H3N2 (Wyoming, March 2003))
Assay: SPR imaging (IBIS MX96), antibody captured on anti-human-IgG chip, HA3 1 ug/ml; global 1:1 fit in Scrubber2

B1: AT10_004 mutant C (antibody, V domains shown)
VH: QVQLVQSGAEVRKPGASVKVSCKASGYTFTRHGISWVRQAPGQGLEWMGWISAYTGDTDYAQKFQGRVTMTTDTSTNTAYMELRSLRSDDAAVYYCARLRLQGEVVVPPSQSNWFDPWGQGTLVTVSS
VL: EIVLTQSPATLSLYPGERATLSCRASQSVSRFLAWYQQKPGQAPRLLIYDASNRATGIPARFSGSGSGTDFTLTISSLEPEDFAVYYCQQRYNWLKITFGQGTRLEIKG
With B1 the Kd was 0.06 nM, the koff was 1e-06 s⁻¹ and the kon was 17000 M⁻¹ s⁻¹.

B2: AT10_004 mutant B (antibody, V domains shown)
VH: QVQLVQSGAEVRKPGASVKVSCKASGYTFTRHGISWVRQAPGQGLEWMGWISAYTGDTDYAQKFQGRVTMTTDTSTNTAYMELRSLRSDDAAVYYCARLRLQGEVVVPPSQSNWFDPWGQGTLVTVSS
VL: EIVLTQSPATLSLYPGERATLSCRASQSVSRYLAWYQQKPGQAPRLLIYDASNRATGIPARFSGSGSGTDFTLTISSLEPEDFAVYYCQQRYNWLKITFGQGTRLEIKG
In the case of B2, the Kd is reported as 0.05 nM, the koff is reported as 1e-06 s⁻¹ and the kon is reported as 19000 M⁻¹ s⁻¹.
